Test results from PMC10393190 (Genes & Development, 2022).
Like-named read-outs stand apart in the source and are kept apart here.

How the values were obtained:
Rec15 coiled-coil domain = target: T1, Rec15 coiled-coil domain (Schizosaccharomyces pombe, UniProt Q09094 1-160); experiment: competition
T1 sequence: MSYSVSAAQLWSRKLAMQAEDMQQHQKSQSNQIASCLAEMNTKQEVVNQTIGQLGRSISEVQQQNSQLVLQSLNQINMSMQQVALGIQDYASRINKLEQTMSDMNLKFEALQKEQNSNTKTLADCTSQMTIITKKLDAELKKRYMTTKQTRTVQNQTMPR

IHO1 coiled-coil domain = target: T2, IHO1 coiled-coil domain (Mus musculus, UniProt Q6PDM4 109-267); experiment: competition
T2 sequence: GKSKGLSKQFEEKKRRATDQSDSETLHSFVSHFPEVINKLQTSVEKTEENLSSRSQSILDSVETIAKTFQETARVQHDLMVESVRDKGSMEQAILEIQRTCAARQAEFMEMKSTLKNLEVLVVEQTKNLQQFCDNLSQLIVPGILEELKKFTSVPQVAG

Rec114;Mei4 [1] = target: T3, Rec114;Mei4 (Saccharomyces cerevisiae;Saccharomyces …, UniProt P32841;P29467 1-428;1-408, |); experiment: competition
T3 sequence 1: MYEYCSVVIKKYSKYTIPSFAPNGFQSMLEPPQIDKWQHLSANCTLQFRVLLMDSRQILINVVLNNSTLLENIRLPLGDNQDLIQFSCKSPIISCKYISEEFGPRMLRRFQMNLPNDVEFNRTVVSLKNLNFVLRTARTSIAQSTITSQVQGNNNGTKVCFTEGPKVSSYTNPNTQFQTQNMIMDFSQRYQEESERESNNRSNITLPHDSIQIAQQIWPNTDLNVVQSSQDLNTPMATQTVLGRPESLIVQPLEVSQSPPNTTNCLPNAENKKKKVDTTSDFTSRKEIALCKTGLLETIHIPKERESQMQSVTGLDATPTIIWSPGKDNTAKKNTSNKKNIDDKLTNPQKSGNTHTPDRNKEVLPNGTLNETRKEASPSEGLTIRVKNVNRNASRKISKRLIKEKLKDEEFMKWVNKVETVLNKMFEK
T3 sequence 2: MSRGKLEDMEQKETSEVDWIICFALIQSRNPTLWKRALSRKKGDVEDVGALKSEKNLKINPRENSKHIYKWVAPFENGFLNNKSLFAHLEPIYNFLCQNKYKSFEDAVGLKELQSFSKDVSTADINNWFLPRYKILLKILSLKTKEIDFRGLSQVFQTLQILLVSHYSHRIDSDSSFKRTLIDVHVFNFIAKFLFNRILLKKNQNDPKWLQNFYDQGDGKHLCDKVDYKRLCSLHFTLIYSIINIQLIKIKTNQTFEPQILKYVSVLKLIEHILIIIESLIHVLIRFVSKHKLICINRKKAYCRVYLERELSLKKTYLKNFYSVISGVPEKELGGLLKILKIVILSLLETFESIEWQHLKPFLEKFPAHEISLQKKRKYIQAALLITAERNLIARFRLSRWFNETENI

Mer2 [2] = target: T4, Mer2 (Saccharomyces cerevisiae, UniProt P21651 1-314); experiment: EMSA
T4 sequence: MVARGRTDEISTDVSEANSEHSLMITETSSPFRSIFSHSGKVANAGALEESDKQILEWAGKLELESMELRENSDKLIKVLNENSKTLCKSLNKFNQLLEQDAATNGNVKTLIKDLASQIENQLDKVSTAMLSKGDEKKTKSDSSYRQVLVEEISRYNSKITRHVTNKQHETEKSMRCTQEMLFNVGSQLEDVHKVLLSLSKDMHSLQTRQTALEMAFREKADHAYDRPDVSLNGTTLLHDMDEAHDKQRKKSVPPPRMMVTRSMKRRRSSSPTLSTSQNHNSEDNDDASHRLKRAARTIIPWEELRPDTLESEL

REC114;MEI4 [3] = target: T5, REC114;MEI4 (Mus musculus;Mus musculus, UniProt Q9CWH4;Q8BRM6 1-259;1-389, |); experiment: competition
T5 sequence 1: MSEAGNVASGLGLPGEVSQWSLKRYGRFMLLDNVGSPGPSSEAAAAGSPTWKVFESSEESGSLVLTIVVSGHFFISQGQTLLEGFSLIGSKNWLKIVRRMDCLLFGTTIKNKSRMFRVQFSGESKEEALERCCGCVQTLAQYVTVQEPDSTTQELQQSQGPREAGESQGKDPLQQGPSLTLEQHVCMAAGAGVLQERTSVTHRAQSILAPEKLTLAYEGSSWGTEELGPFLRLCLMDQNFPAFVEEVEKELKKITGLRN
T5 sequence 2: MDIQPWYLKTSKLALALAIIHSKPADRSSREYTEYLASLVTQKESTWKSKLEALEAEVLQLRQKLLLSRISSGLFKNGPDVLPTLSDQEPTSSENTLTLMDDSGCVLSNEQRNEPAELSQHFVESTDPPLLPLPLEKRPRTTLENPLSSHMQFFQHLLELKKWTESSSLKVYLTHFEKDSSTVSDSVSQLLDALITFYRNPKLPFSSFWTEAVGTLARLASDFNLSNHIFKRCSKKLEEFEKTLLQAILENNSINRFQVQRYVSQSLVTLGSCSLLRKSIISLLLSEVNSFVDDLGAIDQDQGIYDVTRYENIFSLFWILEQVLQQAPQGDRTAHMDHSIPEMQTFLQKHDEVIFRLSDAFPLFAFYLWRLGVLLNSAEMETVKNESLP

Mer2 [4] = target: T4, Mer2; experiment: EMSA; remark: listed apart in the source
Mer2 [5] = target: T4, Mer2; experiment: EMSA; remark: listed apart in the source
Mer2 [6] = target: T4, Mer2; experiment: EMSA; remark: listed apart in the source

B1: HJ40 (cb095/cb096/cb097/cb098) (structured_DNA)
DNA 1: CTAGTATAGAGCCGGCGCGCCATGTCTAGATAGCGTTAGGTCTGCCGAATAGTACTACTCGGATCCCGAGCGAACCACGC
DNA 2: GCGTGGTTCGCTCGGGATCCGAGTAGTACTATTCGGCAGAGGATTCGAATAGGCCTAATCGAATTCCGCCATCGATGCAC
DNA 3: GTGCATCGATGGCGGAATTCGATTAGGCCTATTCGAATCCAGACGCGAGTAGATCTTCACGGTACCCGCGGTTACCCGTG
DNA 4: CACGGGTAACCGCGGGTACCGTGAAGATCTACTCGCGTCTCCTAACGCTATCTAGACATGGCGCGCCGGCTCTATACTAG
- binding result (Rec15 coiled-coil domain): binds
- binding result (IHO1 coiled-coil domain): binds
- binding signal (Rec114;Mei4 [1]): ~10 fold better competitor than dsDNA
- apparent K (half saturation) (Mer2 [2]): 9.2 ± 1 nM
- binding signal (REC114;MEI4 [3]): > 20 fold higher affinity than dsDNA

B2: Fork (cb095/cb098/cb122/cb120) (structured_DNA)
DNA 1: B1 DNA 1
DNA 2: B1 DNA 4
DNA 3: AGACGCGAGTAGATCTTCACGGTACCCGCGGTTACCCGTG
DNA 4: GCGTGGTTCGCTCGGGATCCGAGTAGTACTATTCGGCAGA
- apparent K (half saturation) (Mer2 [4]): 24.4 ± 5.5 nM

B3: 3' flaps (cb095/cb098/cb122) (structured_DNA)
DNA 1: B1 DNA 1
DNA 2: B1 DNA 4
DNA 3: B2 DNA 3
- apparent K (half saturation) (Mer2 [5]): 34.4 ± 25.2 nM

B4: HJ20 (cb922/cb923/cb924/cb925) (structured_DNA)
DNA 1: CAACGTGGGCAAAGATGTCCTAGCAATGTAATCGTCTATG
DNA 2: ATTCTACCAGTGCCAGTGATGGACATCTTTGCCCACGTTG
DNA 3: ATCCTCTAGACAGCTCCATGATCACTGGCACTGGTAGAAT
DNA 4: CATAGACGATTACATTGCTACATGGAGCTGTCTAGAGGAT
- apparent K (half saturation) (Mer2 [6]): 23.9 ± 2.9 nM
